Laboratory results: publication PMC11087589, “Molecular basis of bacterial DSR2 anti-phage defense and viral immune evasion” (Nature Communications, 2024)

B4: Phage tail tube protein from Siphoviridae SPR, His6-SUMO-tagged (natural protein, Siphoviridae SPR (phage))
chain: MKTVIQDTADVYFKRKSDGKLVFTAEAQTASFSQAISEEKLRGGIGNKPLYILKSEKEINLTVKNAFFDLEWLAMTQGETIQEETKVKVFDREHGLIVDDTNKVTLKGKPVSDVTFYNKKGLTYKIAVSTDGTYTIPTAFAAAKDKLTAVYQIEKVGRRLAIKASKFSERYEVEYRTIAYNPDTEEVYSDIYIQFPNVSPSGEFEMSLENGNALAPEIKFEALADTDTDEMAVVIEASRDENTAAPVEDTTGSTQSSDLGGTTE
notes: Purified alone it is a hexamer and filaments of hexamers; in the complex with DSR2^H171A it is a monomer at each corner (4:4); The methods say that His6-SUMO-Tube was purified directly, without removal of the tag; also called His6-SUMO-Tube; HisSUMO-Tube; source: E. coli BL21(DE3); not shown: His6, N-terminal, kept; SUMO, N-terminal, kept

Legend:
[1] = target: DSAD1 (DSR anti-defense 1) from Siphoviridae SPbeta, His6-SUMO-tagged, co-expressed with DSR2 (Siphoviridae SPbeta (phage)) (UniProt Q796A8); assay: cryo-EM structure; DSR2-DSAD1 complex co-expressed and purified, 1.2 mg/mL; 3.49 Å after focus refinement
[2] = target: Bacillus subtilis DSR2, wild type, co-expressed with His6-SUMO-DSAD1 (Bacillus subtilis); assay: as above
[3] = target: the molecule itself; assay: cryo-EM structure; apo DSR2 tetramer, 1.5 mg/mL, 4.15 Å after focus refinement
[4] = target: the molecule itself; assay: SEC; oligomeric state of purified DSR2, its mutants and the DSR2^H171A-Tube complex; Superdex 200 Increase 10/300 GL, 25 mM Tris-HCl pH 7.5, 150 mM NaCl
[5] = target: B4; assay: cryo-EM structure; DSR2^H171A-Tube complex co-expressed and purified, 2 mg/mL, 1 mM NAD+ added; 3.58 Å, local refinement 3.08 Å; settings: both partners purified
[6] = target: the molecule itself; assay: SEC + other: cryo-EM 2D class averages; purified His6-SUMO-Tube alone

## Bacillus subtilis DSR2, wild type, co-expressed with His6-SUMO-DSAD1 (enzyme)
[1]
  stoichiometry N (DSAD1:DSR2 (2:4)): 0.5
[2]
  stoichiometry N: 4

B1: Bacillus subtilis DSR2 (defense-associated sirtuin 2), wild type, His-tagged, purified alone (enzyme, UniProt P0DXN8 1-1005, looked up)
chain: MVKVDLESKRYGEKLKEVFLMLDNNVVECIKEITESSRNGKLVFFVGAGVSTLSDYPQWWRLVDKYHEELYGSPKKGNYSSDEYLRIPQIFYNVKGEMAFDGILKDFFQVDKPTNPIHDKILAMNPAHVITTNYDNLIDTACWKRGKYFSVISAEEDVANATSSRYLLKVHGDFRKGFKGENVVLKEDDYLNYDQNYPLISNLMKTIIATHTIVFIGYGLGDYNINMLLNWVRKLQKDSFHKPFFIRTDPSPIENETLIYYENKGLRIIDAASLIDSNEYDYLERYSAVMDLLIESQENKFITKDDEVIDYIYGKISPLFALQYIRKIDLKHVFEYDYHFEVNGTVVRHKNKGFGYMERFFELKESCDERSKLSKKQYERFNALFNFFEKNGVICMAKDAGTLNTSIEINSLAYHGKYDVMKKFIEEQSVSIEDDYKKAFFLACLGRWEESYDLYSNIILNSIDESNGCVYYLSQINRYRIYQSITQAVTQFNGLGLLTFGRHYKPFTDEFLARIEREMTNFNIDDLFNGMPFEFQKKYKILEFLSDNQFLYDDTVKLFELTNKVRSEMSEGSYSFGMSSDIVVLLRLYDNLRFLYENCLWSVSFHEFHQYIRNSMSLLIEKAEYERTRDIDELGFSFFGKKSGFFMEYYDFVNISRHFKIDDIKNLERSCSIDKIRFGEQEKIEEYLVGIAEEITKQFSANGMNVVFYTQFISEAKAALYFAKYVKLSEEGLGKIVKALLFYFPERDLDIGKRYVWLERLTKCNELPKSIISIIDDFLVLQAEKHIDQNYSEVSSNGLYSRDYGALIKHFEKNFISKRLSEITLCLTQDKQKQIDFLFKLLPLLSTNAKSHLLSFKSVENINDLMNGIRIGLIDEFTPEHEELIIEYLETRKVNYIVEKEKGIQTFSSNDYMSTFGIWYFLEEINNSKMEEFIGMDDQYDFFVDPENFDYKKFIPSWLKNYNDKLLGKIAGNKHMKHHVIEVLKERVKNSNDKRYLEILMNYFI
notes: Homo-tetramer by cryo-EM and SEC; Cloned into pCDFDuet (BamHI/XhoI); the methods call it His-tagged; also called apo DSR2; apo DSR2 tetramer; source: E. coli BL21(DE3), purified (Ni-NTA, gel filtration on Superdex 200 Increase)
[3]
  stoichiometry N: 4

B2: DSR2^I259S/Y260G (enzyme, Bacillus subtilis, UniProt P0DXN8 1-1005, looked up)
chain: MVKVDLESKRYGEKLKEVFLMLDNNVVECIKEITESSRNGKLVFFVGAGVSTLSDYPQWWRLVDKYHEELYGSPKKGNYSSDEYLRIPQIFYNVKGEMAFDGILKDFFQVDKPTNPIHDKILAMNPAHVITTNYDNLIDTACWKRGKYFSVISAEEDVANATSSRYLLKVHGDFRKGFKGENVVLKEDDYLNYDQNYPLISNLMKTIIATHTIVFIGYGLGDYNINMLLNWVRKLQKDSFHKPFFIRTDPSPIENETLSGYENKGLRIIDAASLIDSNEYDYLERYSAVMDLLIESQENKFITKDDEVIDYIYGKISPLFALQYIRKIDLKHVFEYDYHFEVNGTVVRHKNKGFGYMERFFELKESCDERSKLSKKQYERFNALFNFFEKNGVICMAKDAGTLNTSIEINSLAYHGKYDVMKKFIEEQSVSIEDDYKKAFFLACLGRWEESYDLYSNIILNSIDESNGCVYYLSQINRYRIYQSITQAVTQFNGLGLLTFGRHYKPFTDEFLARIEREMTNFNIDDLFNGMPFEFQKKYKILEFLSDNQFLYDDTVKLFELTNKVRSEMSEGSYSFGMSSDIVVLLRLYDNLRFLYENCLWSVSFHEFHQYIRNSMSLLIEKAEYERTRDIDELGFSFFGKKSGFFMEYYDFVNISRHFKIDDIKNLERSCSIDKIRFGEQEKIEEYLVGIAEEITKQFSANGMNVVFYTQFISEAKAALYFAKYVKLSEEGLGKIVKALLFYFPERDLDIGKRYVWLERLTKCNELPKSIISIIDDFLVLQAEKHIDQNYSEVSSNGLYSRDYGALIKHFEKNFISKRLSEITLCLTQDKQKQIDFLFKLLPLLSTNAKSHLLSFKSVENINDLMNGIRIGLIDEFTPEHEELIIEYLETRKVNYIVEKEKGIQTFSSNDYMSTFGIWYFLEEINNSKMEEFIGMDDQYDFFVDPENFDYKKFIPSWLKNYNDKLLGKIAGNKHMKHHVIEVLKERVKNSNDKRYLEILMNYFI
notes: Dimer by SEC; also called I259S/Y260G mutant; mutant with disruption at the tetrameric interface; source: E. coli BL21(DE3), purified by a protocol similar to that of the wild type
[4]
  stoichiometry N: 2

B3: DSR2^H171A, catalytic mutant, co-expressed with His6-SUMO-Tube (enzyme, Bacillus subtilis, UniProt P0DXN8 1-1005, looked up)
chain: MVKVDLESKRYGEKLKEVFLMLDNNVVECIKEITESSRNGKLVFFVGAGVSTLSDYPQWWRLVDKYHEELYGSPKKGNYSSDEYLRIPQIFYNVKGEMAFDGILKDFFQVDKPTNPIHDKILAMNPAHVITTNYDNLIDTACWKRGKYFSVISAEEDVANATSSRYLLKVAGDFRKGFKGENVVLKEDDYLNYDQNYPLISNLMKTIIATHTIVFIGYGLGDYNINMLLNWVRKLQKDSFHKPFFIRTDPSPIENETLIYYENKGLRIIDAASLIDSNEYDYLERYSAVMDLLIESQENKFITKDDEVIDYIYGKISPLFALQYIRKIDLKHVFEYDYHFEVNGTVVRHKNKGFGYMERFFELKESCDERSKLSKKQYERFNALFNFFEKNGVICMAKDAGTLNTSIEINSLAYHGKYDVMKKFIEEQSVSIEDDYKKAFFLACLGRWEESYDLYSNIILNSIDESNGCVYYLSQINRYRIYQSITQAVTQFNGLGLLTFGRHYKPFTDEFLARIEREMTNFNIDDLFNGMPFEFQKKYKILEFLSDNQFLYDDTVKLFELTNKVRSEMSEGSYSFGMSSDIVVLLRLYDNLRFLYENCLWSVSFHEFHQYIRNSMSLLIEKAEYERTRDIDELGFSFFGKKSGFFMEYYDFVNISRHFKIDDIKNLERSCSIDKIRFGEQEKIEEYLVGIAEEITKQFSANGMNVVFYTQFISEAKAALYFAKYVKLSEEGLGKIVKALLFYFPERDLDIGKRYVWLERLTKCNELPKSIISIIDDFLVLQAEKHIDQNYSEVSSNGLYSRDYGALIKHFEKNFISKRLSEITLCLTQDKQKQIDFLFKLLPLLSTNAKSHLLSFKSVENINDLMNGIRIGLIDEFTPEHEELIIEYLETRKVNYIVEKEKGIQTFSSNDYMSTFGIWYFLEEINNSKMEEFIGMDDQYDFFVDPENFDYKKFIPSWLKNYNDKLLGKIAGNKHMKHHVIEVLKERVKNSNDKRYLEILMNYFI
notes: source: E. coli BL21(DE3), co-expressed with His6-SUMO-Tube; in lysate (pull-down) and purified as the complex (Ni-NTA, Hitrap Q, gel filtration)
[4]
  stoichiometry N: 4
[5]
  stoichiometry N: 1 DSR2:Tube (4:4)

## B4
[6]
  stoichiometry N: 6
